From patent US20200317779A1 (GREEN CROSS, published 2020)
Numbering of substitutions follows the chain as printed.

B1: H16 (antibody, human IgG1, lambda, L234A L235A, V domains shown)
VH: EVQLVESGGGLVQPGGSLKLSCAASGFTFNTYAMNWVRQASGKGLEWVARIRSKYNNYATYYADSVKDRFTISRDDSQSTLYLQMNSLKTEDTAVYYCVRHGNFGNSYVSWFAYWGQGTLVTVSS
VL: QAVVTQEPSLTVSPGGTVTLTCRSSTGAVTTSNYANWVQQKPGQAPRGLIGGTNKRAPWTPARFSGSLLGDKAALTLSGAQPEDEAEYYCALWYSNLWVFGGGTKLTVLG
notes: humanized SP34 IgG1, lambda
B2: B08 (antibody, human IgG1, lambda, L234A L235A, V domains shown)
VH: B1 VH with A49G, Q78K, S79N
VL: B1 VL with V38F
notes: humanized SP34 IgG1, lambda; also called B8
B3: E15 (antibody, human IgG1, lambda, L234A L235A, V domains shown)
VH: B1 VH with Q78K, S79N, L81A
VL: B1 VL with D71G
notes: humanized SP34 IgG1, lambda
B4: G15 (antibody, human IgG1, lambda, L234A L235A, V domains shown)
VH: B1 VH with L81A
VL: B1 VL with D71G
notes: humanized SP34 IgG1, lambda
B5: A08 (antibody, human IgG1, lambda, L234A L235A, V domains shown)
VH: B1 VH with A49G, Q78K, S79N, L81A
VL: B1 VL with V38F
notes: humanized SP34 IgG1, lambda; also called A8
B6: C08 (antibody, human IgG1, lambda, L234A L235A, V domains shown)
VH: B1 VH with A49G, L81A
VL: B1 VL with V38F
notes: humanized SP34 IgG1, lambda; also called C8
B7: H15 (antibody, human IgG1, lambda, L234A L235A, V domains shown)
VH: B1 VH
VL: B1 VL with D71G
notes: humanized SP34 IgG1, lambda
B8: E16 (antibody, human IgG1, lambda, L234A L235A, V domains shown)
VH: B1 VH with Q78K, S79N, L81A
VL: B1 VL
notes: humanized SP34 IgG1, lambda
B9: D07 (antibody, human IgG1, lambda, L234A L235A, V domains shown)
VH: B1 VH with A49G
VL: B1 VL with V38F, D71G
notes: humanized SP34 IgG1, lambda; also called D7
B10: C16 (antibody, human IgG1, lambda, L234A L235A, V domains shown)
VH: B1 VH with A49G, L81A
VL: B1 VL
notes: humanized SP34 IgG1, lambda
B11: A16 (antibody, human IgG1, lambda, L234A L235A, V domains shown)
VH: B1 VH with A49G, Q78K, S79N, L81A
VL: B1 VL
notes: humanized SP34 IgG1, lambda
B12: C07 (antibody, human IgG1, lambda, L234A L235A, V domains shown)
VH: B1 VH with A49G, L81A
VL: B1 VL with V38F, D71G
notes: humanized SP34 IgG1, lambda; also called C7
B13: B15 (antibody, human IgG1, lambda, L234A L235A, V domains shown)
VH: B1 VH with A49G, Q78K, S79N
VL: B1 VL with D71G
notes: humanized SP34 IgG1, lambda
B14: B16 (antibody, human IgG1, lambda, L234A L235A, V domains shown)
VH: B1 VH with A49G, Q78K, S79N
VL: B1 VL
notes: humanized SP34 IgG1, lambda
B15: A07 (antibody, human IgG1, lambda, L234A L235A, V domains shown)
VH: B1 VH with A49G, Q78K, S79N, L81A
VL: B1 VL with V38F, D71G
notes: humanized SP34 IgG1, lambda; also called A7
B16: Mouse human chimeric SP34 IgG1 antibody (antibody, V domains shown)
VH: B1 VH with G15K, S41P, T80I, S87N, V95M
VL: QAVVTQESALTTSPGETVTLTCRSSTGAVTTSNYANWVQEKPDHLFTGLIGGTNKRAPGVPARFSGSLIGDKAALTITGAQTEDEAIYFCALWYSNLWVFGGGTKLTVLG
B17: B07 (antibody, human IgG1, lambda, L234A L235A, V domains shown)
VH: B1 VH with A49G, Q78K, S79N
VL: B1 VL with V38F, D71G
notes: humanized SP34 IgG1, lambda; also called B7
B18: F15 (antibody, human IgG1, lambda, L234A L235A, V domains shown)
VH: B1 VH with Q78K, S79N
VL: B1 VL with D71G
notes: humanized SP34 IgG1, lambda
B19: D16 (antibody, human IgG1, lambda, L234A L235A, V domains shown)
VH: B1 VH with A49G
VL: B1 VL
notes: humanized SP34 IgG1, lambda
B20: D15 (antibody, human IgG1, lambda, L234A L235A, V domains shown)
VH: B1 VH with A49G
VL: B1 VL with D71G
notes: humanized SP34 IgG1, lambda
B21: G16 (antibody, human IgG1, lambda, L234A L235A, V domains shown)
VH: B1 VH with L81A
VL: B1 VL
notes: humanized SP34 IgG1, lambda
B22: D08 (antibody, human IgG1, lambda, L234A L235A, V domains shown)
VH: B1 VH with A49G
VL: B1 VL with V38F
notes: humanized SP34 IgG1, lambda; also called D8
B23: A15 (antibody, human IgG1, lambda, L234A L235A, V domains shown)
VH: B1 VH with A49G, Q78K, S79N, L81A
VL: B1 VL with D71G
notes: humanized SP34 IgG1, lambda
B24: F16 (antibody, human IgG1, lambda, L234A L235A, V domains shown)
VH: B1 VH with Q78K, S79N
VL: B1 VL
notes: humanized SP34 IgG1, lambda
B25: C15 (antibody, human IgG1, lambda, L234A L235A, V domains shown)
VH: B1 VH with A49G, L81A
VL: B1 VL with D71G
notes: humanized SP34 IgG1, lambda

target: T1, CD3 on monkey T cells (monkey splenocytes) (monkey); assay: flow cytometry on monkey splenocytes, 1 µg antibody per 10^6 cells in 100 µl, PE anti-human IgG detection
T1 construct: whole, on cells; The target is printed as 'monkey T cells'
Experimental: Specifically, monkey splenocytes were prepared at 10⁶ cells in 100 μl FACS solution per antibody sample, and then 1 μg of antibody was used to treat the cells. The resultant was stored for 25 minutes in the dark at 4° C. Subsequently, treatment with 3 ml of FACS buffer was performed, and centrifugation was performed at 2,000 rpm for 3 minutes. Then, the supernatant was discarded.
(§1) Next, 100 μl FACS buffer containing 1 μg of PE-conjugated human IgG antibody was used to treat the cells, and the resultant was stored for 25 minutes in the dark at 4° C. Subsequently, treatment with 3 ml of FACS buffer was performed, and centrifugation was performed at 2,000 rpm for 3 minutes. Then, the supernatant was discarded.
(§2) The cells were treated with a 4% formaldehyde solution, stored in the dark at 4° C. for 30 minutes, and then treated with 3 ml of FACS buffer. Centrifugation was performed at 2,000 rpm for 3 minutes, and then the supernatant was discarded. Treatment with 350 μl of FACS buffer was performed, and a flow cytometer was used to perform affinity analysis of the antibodies for the […]. The analysis results are illustrated in FIG. 2.

In order of rising “Mean : Comp-PE-A” value:
1. B2  4590
2. B17  4790
3. B22  5120
4. B12  5380
5. B5  5530
6. B6  5670
7. B15  6680
8. B9  6760
9. B24  11900
10. B10  12100
11. B1  13400
12. B3  13500
13. B8  13900
14. B21  14000
15. B18  14700
16. B23  15800
17. B13  16300
18. B7  16700
19. B14  17200
20. B4  17300
21. B11  17600
22. B25  17800
23. B19  18600
24. B20  18600
25. B16  19800

target: T2, CD3 on human T cells (H9 cells, ATCC HTB-176) (human); assay: flow cytometry on H9 cells, 1 µg antibody per 2x10^5 cells in 100 µl, PE anti-human IgG detection
T2 construct: whole, on cells; The target is printed as 'human T cells'
Experimental: The resultant was stored for 25 minutes in the dark at 4° C. Subsequently, treatment with 3 ml of FACS buffer was performed, and centrifugation was performed at 2,000 rpm for 3 minutes. Then, the supernatant was discarded.
as §1, with “phycoerythrin (PE)-conjugated” for “PE-conjugated”
as §2, with “1.” for “2.”

T2 sequence (P07766 23-207, chain 1 of 3): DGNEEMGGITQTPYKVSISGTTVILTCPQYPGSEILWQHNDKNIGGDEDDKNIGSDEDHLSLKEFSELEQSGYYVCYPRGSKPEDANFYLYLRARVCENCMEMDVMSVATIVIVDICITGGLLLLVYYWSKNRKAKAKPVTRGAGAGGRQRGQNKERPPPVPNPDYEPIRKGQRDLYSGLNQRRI
T2 sequence (P04234 22-171, chain 2 of 3, further chain): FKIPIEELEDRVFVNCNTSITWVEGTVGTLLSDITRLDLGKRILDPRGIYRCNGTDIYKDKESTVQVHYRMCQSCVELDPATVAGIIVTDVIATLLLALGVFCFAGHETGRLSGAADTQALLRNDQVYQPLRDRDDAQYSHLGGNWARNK
T2 sequence (P09693 23-182, chain 3 of 3, further chain): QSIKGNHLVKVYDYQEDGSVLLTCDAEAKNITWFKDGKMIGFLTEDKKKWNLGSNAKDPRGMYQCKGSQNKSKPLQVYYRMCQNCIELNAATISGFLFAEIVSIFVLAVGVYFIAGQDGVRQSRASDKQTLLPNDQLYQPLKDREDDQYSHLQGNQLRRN

In order of falling “Mean : PE-A” value:
1. B23  24000
2. B25  23100
3. B13  22900
4. B20  22600
5. B19  18300
6. B10  17700
7. B14  16800
8. B11  16700
9. B3  12800
10. B4  11600
11. B18  11200
12. B8  11100
13. B21  10300
14. B7  9620
15. B24  9530
16. B1  9350
17. B17  4810
18. B6  4680
19. B12  4620
20. B15  4310
21. B22  4220
22. B2  3780
23. B9  3770
24. B5  3080
